Assays:
Human Skin Fibroblasts = settings: Silverberg et al. 2012; cited from earlier work
catalase [1] = experiment: Catalase activity by decomposition rate of H2O2 (absorbance at 240 nm), pH 7.0; type: biochemical; settings: free enzyme vs enzyme contained in film (FIG. 2, FIG. 3)
Experimental: (§1) In the prolamin-based film for oral delivery containing catalase, the activity of catalase was measured by checking the decomposition rate of hydrogen peroxide (H2O2). The activity of catalase was measured by mixing catalase or the prolamin-based film for oral delivery containing catalase with 10 μM of H2O2 in a buffering solution of pH 7.0, and then monitoring the absorbance value of H2O2 at 240 nm. Further, in the prolamin-based film for oral delivery containing SOD, SOD activity was measured in accordance with the manufacturer's instructions by using SOD assay kit (SOD determination kit 19,160, Fluka, St. Louis, Mo.). Significance of results was determined via t-test between Zein film and other films containing SOD or catalase with p<0.05(*).
The activities of catalases contained in the film for oral delivery as prepared in the Comparative Example 1-1 and Example 1-1 were compared. […] 1 mg of each formulation was taken to check the quantity of fluorescence which was then compared with the initially used quantity of fluorescence, resulting in the determination of the quantity of catalase in each formulation. The activity of catalase was evaluated at pH 7.0 as described in Example 2-1 by using fluorescent-unbound catalase, forming Zein Nanoparticle and Film, and taking 1 mg of each formulation. […]

catalase [2] = experiment: Catalase activity in the stomach condition (HCl pH 1.3, with or without pepsin); type: biochemical; settings: pH 1.3, 20 minutes, pepsin-treated or pepsin-untreated (FIG. 5, FIG. 6)
Experimental: as §1
The function of Zein in protecting an anti-oxidative protein in the stomach condition was evaluated. In order to mimic the stomach condition, catalase or the prolamin-based film for oral delivery containing catalase was added into hydrochloric acid solution (50.1 mM HCl, pH 1.3) and left for 20 minutes. […] The activities of catalase and SOD were measured in the same manner as Example 2-1. Significance of results was determined via t-test between free enzymes and other delivery vehicles with p<0.05(*).

catalase [3] = experiment: Catalase activity in the small intestine condition (pH 7.4, with or without trypsin); type: biochemical; settings: pH 7.4, 30 minutes
Experimental: as §1
In order to mimic the small intestine condition, test groups were divided into […] Trypsin-treated group and Trypsin-untreated group, respectively, while being left for 30 minutes in the environment of pH 7.4.
The activities of catalase and SOD were measured in the same manner as Example 2-1. Significance of results was determined via t-test between free enzymes and other delivery vehicles with p<0.05(*).

## Cn1c(=O)c2c(ncn2C)n(C)c1=O [Caffeine, caffeine]
Human Skin Fibroblasts
  protection of cells from reactive oxygens: able to protect cells from reactive oxygens

## catalase
Catalase [1]
  relative activity of catalase: approximately similar to those as contained in the Zein-based film
Catalase [2]
  relative activity of catalase in the stomach condition: lost almost completely its activity
Catalase [3]; Trypsin-treated group (FIG. 8, FIG. 9)
  relative activity of catalase in the small intestine condition, Trypsin-treated: lost its activity significantly
Catalase [3]; Trypsin-untreated group (FIG. 8)
  relative activity of catalase at pH 7.4, Trypsin-untreated: maintained its activity

— US20160184441A1, “PROLAMIN-BASED FILM AND METHOD FOR MANUFACTURING PROLAMIN-BASED ORAL FILM FOR PROTECTING ACTIVITY OF ANTI-OXIDATIVE MATERIAL” (SEHABIO CO., LTD., priority 2014, published 2016)
